From PMC11347170, “Staphylococcal exoribonuclease YhaM destabilizes ribosomes by targeting the mRNA of a hibernation factor”

Biological target: YhaM D193A (Staphylococcus aureus JE2 (USA300), UniProt A0A0H2XHZ3 1-313, D193A)
Test: EMSA; 1 mM Mn2+; 15 nM RNA, 0-30 uM YhaM; partial RNA degradation at high protein; EMSA: 50 mM Na-Tricine pH 8.0, 100 mM KCl, 1 mM MnSO4, 37 C 20 min, 20% TBE native gel
Conditions: protein: recombinant; tags: N-terminal His6 (pMCSG7); label: 5'-6-FAM; single strand

## AGGAAAAAACAUUUUAUAAAGGAGA (ssRNA) [RNA_a]
  binding result: binds
